In PMC10523585 (Molecular cell, 2023):

Legend:
Test in all cases: cryo-EM structure
[1] = target: T1, α7 (CP subunit of the human 26S proteasome) (human, UniProt P25788 2-255)
T1 sequence: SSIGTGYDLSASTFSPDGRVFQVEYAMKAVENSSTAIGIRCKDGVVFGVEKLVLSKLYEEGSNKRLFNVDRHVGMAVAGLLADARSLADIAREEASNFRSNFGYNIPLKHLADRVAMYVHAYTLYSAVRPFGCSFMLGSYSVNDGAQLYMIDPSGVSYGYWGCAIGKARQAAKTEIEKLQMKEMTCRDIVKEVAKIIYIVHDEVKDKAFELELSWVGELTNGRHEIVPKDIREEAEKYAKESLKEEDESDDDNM

[2] = target: Rpt1 (ATPase subunit of the human 26S proteasome) (human, UniProt P35998 1-433)
Sequence of Rpt1 (ATPase subunit of the human 26S proteasome) (P35998 whole entry): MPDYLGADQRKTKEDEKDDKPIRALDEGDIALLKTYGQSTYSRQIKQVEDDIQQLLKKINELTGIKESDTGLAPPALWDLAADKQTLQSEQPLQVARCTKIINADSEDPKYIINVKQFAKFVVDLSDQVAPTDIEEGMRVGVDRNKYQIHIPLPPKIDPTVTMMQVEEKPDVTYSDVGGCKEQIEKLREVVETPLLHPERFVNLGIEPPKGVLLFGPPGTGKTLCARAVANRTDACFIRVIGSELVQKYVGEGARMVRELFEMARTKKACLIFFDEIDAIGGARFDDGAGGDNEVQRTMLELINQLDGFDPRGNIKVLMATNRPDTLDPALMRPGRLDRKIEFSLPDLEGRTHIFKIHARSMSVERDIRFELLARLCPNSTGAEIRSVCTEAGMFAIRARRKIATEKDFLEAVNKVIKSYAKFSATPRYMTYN

[3] = target: Rpn1 (non-ATPase, ubiquitin-binding subunit of the human 26S proteasome) (human, UniProt Q13200 1-908)
Sequence of Rpn1 (non-ATPase, ubiquitin-binding subunit of the human 26S proteasome) (Q13200 whole entry): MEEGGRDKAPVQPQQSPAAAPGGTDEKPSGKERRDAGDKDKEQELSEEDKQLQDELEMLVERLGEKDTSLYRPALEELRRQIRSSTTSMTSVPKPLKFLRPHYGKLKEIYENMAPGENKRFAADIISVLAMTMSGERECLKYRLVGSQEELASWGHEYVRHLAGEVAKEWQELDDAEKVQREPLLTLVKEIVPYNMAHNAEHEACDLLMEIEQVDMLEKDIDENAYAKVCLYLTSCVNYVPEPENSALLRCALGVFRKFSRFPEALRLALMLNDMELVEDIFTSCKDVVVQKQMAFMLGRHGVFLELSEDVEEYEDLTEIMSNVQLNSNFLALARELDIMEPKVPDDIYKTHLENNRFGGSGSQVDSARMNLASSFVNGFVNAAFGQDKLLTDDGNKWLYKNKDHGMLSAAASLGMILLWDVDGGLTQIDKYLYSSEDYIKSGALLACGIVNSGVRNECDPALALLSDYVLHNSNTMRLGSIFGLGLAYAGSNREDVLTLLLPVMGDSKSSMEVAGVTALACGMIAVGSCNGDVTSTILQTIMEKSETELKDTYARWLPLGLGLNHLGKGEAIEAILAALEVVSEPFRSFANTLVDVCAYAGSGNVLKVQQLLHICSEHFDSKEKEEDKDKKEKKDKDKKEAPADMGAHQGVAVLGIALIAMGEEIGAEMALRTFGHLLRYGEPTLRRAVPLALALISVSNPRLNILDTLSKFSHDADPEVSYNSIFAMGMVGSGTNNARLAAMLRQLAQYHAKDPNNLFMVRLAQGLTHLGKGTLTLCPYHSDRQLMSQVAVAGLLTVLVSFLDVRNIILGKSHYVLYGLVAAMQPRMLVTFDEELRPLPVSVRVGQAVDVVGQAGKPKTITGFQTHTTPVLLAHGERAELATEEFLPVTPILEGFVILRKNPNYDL

[4] = target: Rpt5 (ATPase subunit of the human 26S proteasome) (human, UniProt P17980 1-439)
Sequence of Rpt5 (ATPase subunit of the human 26S proteasome) (P17980 whole entry): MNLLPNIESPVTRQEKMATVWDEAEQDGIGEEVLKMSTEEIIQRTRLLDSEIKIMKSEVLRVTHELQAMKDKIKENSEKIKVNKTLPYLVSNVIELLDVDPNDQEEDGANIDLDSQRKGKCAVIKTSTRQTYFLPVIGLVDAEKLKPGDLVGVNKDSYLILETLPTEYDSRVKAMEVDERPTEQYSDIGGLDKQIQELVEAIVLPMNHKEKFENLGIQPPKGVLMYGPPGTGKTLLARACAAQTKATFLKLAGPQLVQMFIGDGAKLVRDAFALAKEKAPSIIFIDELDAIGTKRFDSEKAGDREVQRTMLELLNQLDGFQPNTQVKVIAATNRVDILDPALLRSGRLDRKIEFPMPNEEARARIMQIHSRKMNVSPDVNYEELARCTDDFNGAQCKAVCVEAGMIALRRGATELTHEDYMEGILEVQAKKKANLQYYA

Measured: binding result

B1: ZFAND5 (recombinant mouse ZFAND5, wild type) (natural protein, UniProt O88878 1-213, looked up)
chain: MAQETNQTPGPMLCSTGCGFYGNPRTNGMCSVCYKEHLQRQQNSGRMSPMGTASGSNSPTSDSASVQRADAGLNNCEGAAGSTSEKSRNVPVAALPVTQQMTEMSISREDKITTPKTEVSEPVVTQPSPSVSQPSSSQSEEKAPELPKPKKNRCFMCRKKVGLTGFDCRCGNLFCGLHRYSDKHNCPYDYKAEAAAKIRKENPVVVAEKIQRI
binds: all assays above
